Eight molecules from paper PMC8133395 (Cell reports, 2021) can be followed below.

B1: BDBV-43 (recombinant IgG1) (antibody, V domains shown)
VH: QVQLVQSGAEVKKPGSSVKVSCRASGDSFSRKYGISWVRQAPGQGFEWMGTIMPIVGLTTSAQKFQGRVTITADKSTSTAHMELNSLTSEDTAIYYCARDEIIGARPHWFDSWGQGTLVTVSS
VL: EIVMTQSPAIMSVSPGKRATLSCRASQSVSSNLAWYQRKPGQAPRLLIYGSSTRATGIPARFSGSGSGTEFTLTISSLQSEDFAVYYCLQYYNWPRTFGQGTKVEIK
notes: source: FreeStyle-293-F, transiently transfected, purified (mAb Select, SEC)
B2: EBOV-442 (recombinant IgG1) (antibody, V domains shown)
VH: EVQLVESGGGLVKPGGSLRLSCTGSGGTGFTFKYAGMSWVRQAPGKGPEWIGRIKSRIDGGTTDYAAPVKDRFIVSRDDSRNTLYLQMNSLKTEDTAVYYCATGSGKGPSASFGESYYYYDFINVWGKGTTVTVSS
VL: ESVLTQSPGTLSLSPGERATLSCRASQSISRKYLAWYQQKPGQAPRLLIYGSSSRATGIPDRFSGSGSGTDFTLTISRLEPEDFAVYYCHQYESSPWTFGQGTKVEIK
notes: IgG1; source: ExpiCHO, transiently transfected, purified (HiTrap MabSelect Sure)
B3: EBOV-237 (recombinant IgG1) (antibody, V domains shown)
VH: QVQLQESGPGLVKPSGTLSLTCAVSGGSISNGIWWSWVRQPPGKGLEWIGEIYHSGSTNYSPSLKSRVTISLDKSKNQFSLKLNSVTAADTAVYYCARAPSQFDFSDWLVPQGAMFRGHYIDYWGQGTLVTVSS
VL: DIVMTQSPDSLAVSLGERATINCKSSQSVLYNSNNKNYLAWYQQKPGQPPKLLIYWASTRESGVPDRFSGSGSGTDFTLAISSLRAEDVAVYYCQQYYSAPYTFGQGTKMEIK
notes: as for B2
B4: EBOV-296 (recombinant IgG1) (antibody, V domains shown)
VH: QVQLVESGPGLVKPSQTLSLICTVSGGSISSGDFYWSWIRQPPGKGLEWIGFFYYSGITYYNPSLKSRVSISRDTSTNQFSLKLRSVTAADTAVYYCARVRGGRITLGQGDMYYYSGMDVWGQGTLVTVSS
VL: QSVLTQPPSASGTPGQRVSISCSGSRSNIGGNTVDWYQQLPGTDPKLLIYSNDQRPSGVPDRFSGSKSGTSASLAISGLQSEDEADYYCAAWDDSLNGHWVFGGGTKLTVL
notes: as for B1
B5: EBOV-293 (recombinant IgG1) (antibody, V domains shown)
VH: QVQLVQSGAEVKKPGSSVKVSCKASGGTFIDYTYNWVRQAPGQGLVWMGRVVPGLGLSSYAQQFEDRVTITAAKSTSTVYMELRGLTSEDTAMYYCARDTASFGWLPFAFWGQGTLVTVSS
VL: QTVMTQSPGTLSLSPGERATLSCGVSQSISSTYFAWYQQKVGQAPRLLIYGASNRASGIPDRFSGSASGTDFTLTISRVEPEDFAVYYCQQYGSSPTFGQGTRLEIK
notes: as for B1
B6: BDBV-289 (recombinant IgG1) (antibody, V domains shown)
VH: QVQLVQSGAEVKKPGSSVKVSCKASGATFGSDTVTWVRQAPGQGLEWMGGIIPFFGEANYAQRFQGRVTITADKSTNTAYMELSSLRSEDTAVYFCARQINEMATFGEIHYYTYMDVWGQGTLVTVSS
VL: GSELTQDPAVSVALGQTVRITCQGDSLRNYYASWYQQKPRQAPVLVFYGKNNRPSGIPDRFSGSSSGNTASLTISGAQAEDEADYYCNSRDSSSNHLVFGGGTKLTVL
notes: IgG1; source: FreeStyle-293-F, transiently transfected, purified (mAb Select, SEC)
B7: BDBV-329 (recombinant IgG1) (antibody, V domains shown)
VH: QVQLVQSGAEVKKPGSSVKVSCKASGGTFDTYAISWVRQAPGQGLEWMGGIIPVLGIVDYAQKFQGRVTITAAKFTNIAYMELSSLRSEDAAVYYCARGLRSLSPRGQEGPTPAPGWRRAQYHYYYMDVWGTGTLVTVSS
VL: EIVMTQSPGTLSLSPGERATLSCRASQSVSSNYLAWYQQKPGQAPRLLIYGASSRATGIPDRFSGSGSGPDFTLTISRLEPEDFAVYYCQQYGSSPGTFGGGTKVEIK
notes: IgG1; also called BDB-329; source: ExpiCHO, transiently transfected, purified (HiTrap MabSelect Sure)
B8: EBOV-437 (recombinant IgG1) (antibody, V domains shown)
VH: QVQLVQSGAEVKKPGSSVKVSCKASGGTFSRDIFSWVRQAPGQGLEWMGGIIPIFGTANYAQKFQGRVTITADKSTSTVFMELSGLRSEDTAVYFCARGPPLRGERSWFGESEKYDYFYMDVWGKGTTVTVSS
VL: B7 VL with E1Q, M4L, S31N, N32S, P70T, T75S, S94T, G97C, G101Q, V105L
notes: as for B2

Numbering of substitutions follows the chain as printed.

T1 sequence (P60170 33-314): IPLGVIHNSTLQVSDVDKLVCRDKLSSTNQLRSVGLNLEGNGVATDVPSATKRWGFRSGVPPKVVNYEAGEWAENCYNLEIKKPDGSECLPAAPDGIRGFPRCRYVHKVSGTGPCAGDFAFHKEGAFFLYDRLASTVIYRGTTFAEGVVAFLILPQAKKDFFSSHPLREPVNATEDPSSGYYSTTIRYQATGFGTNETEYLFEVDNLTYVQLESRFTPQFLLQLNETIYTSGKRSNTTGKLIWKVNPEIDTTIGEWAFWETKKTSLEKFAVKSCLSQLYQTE

The experiment has as its target T1, EBOV sGP (Mayinga) (Zaire ebolavirus, Mayinga, GenBank …, UniProt P60170).
T1 construct: source: FreeStyle-293-F, transiently transfected, purified (Strep-Tactin, SEC)
Description: ELISA. The conditions noted are these: both partners purified. In general terms: An ELISA detects its analyte on a solid surface through an enzyme-linked reagent.
For the molecule B1, the binding result is on record as “binds”.
On to B2, for which the binding result is “binds”.
Under B3 stands “binds”; under B4, “binds”.
Under B5 stands “binds”.
Under B6 stands “binds”; under B7, “binds”; under B8, “binds”.
